Usually Kd stands for a measure of binding affinity in units of concentration. Read a low Kd as higher affinity.

Where two headings read alike, the source gives them in different places.

For one molecule, Kd results are on record in article PMC4543619 (British Journal of Pharmacology, 2015).

The target in test [1] is T1, native/full length GTP cyclohydrolase 1 (F‐GCH1), His6-tagged (human, UniProt P30793 1-250).
T1 sequence (looked up): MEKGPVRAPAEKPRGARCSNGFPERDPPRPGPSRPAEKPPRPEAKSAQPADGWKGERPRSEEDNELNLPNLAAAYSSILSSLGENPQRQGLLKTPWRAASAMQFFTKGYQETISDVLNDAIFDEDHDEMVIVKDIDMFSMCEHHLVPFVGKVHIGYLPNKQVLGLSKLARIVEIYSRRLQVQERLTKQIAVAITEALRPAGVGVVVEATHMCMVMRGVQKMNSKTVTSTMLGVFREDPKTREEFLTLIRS
The experiment in a line: SPR. In general terms: Surface plasmon resonance follows binding to a sensor surface in real time, without labels.

The target of test [2] is T1, native/full length GTP cyclohydrolase 1 …. Briefly: SPR. The source holds these as a separate data set.

B1: GCH1 feedback regulatory protein (GFRP), His6 tag cleaved (natural protein)
chain: not shown
For the molecule B1, the Kd was determined as 1 nM in test [1] and 8 nM in test [2].
